# According to IntAct's records for PubMed 10512882:
# B1: Focal adhesion kinase 1 (Gallus gallus (Chicken)), Q00944 (parent)
# chain: MAAAYLDPNLNHTPSSSAKTHLGTGMERSPGAMERVLKVFHYFENSSEPTTWASIIRHGDATDVRGIIQKIVDCHKVKNVACYGLRLSHLQSEEVHWLHLDMGVSNVREKFELAHPPEEWKYELRIRYLPKGFLNQFTEDKPTLNFFYQQVKNDYMLEIADQVDQEIALKLGCLEIRRSYGEMRGNALEKKSNYEVLEKDVGLRRFFPKSLLDSVKAKTLRKLIQQTFRQFANLNREESILKFFEILSPVYRFDKECFKCALGSSWIISVELAIGPEEGISYLTDKGANPTHLADFNQVQTIQYSNSEDKDRKGMLQLKIAGAPEPLTVTAPSLTIAENMADLIDGYCRLVNGATQSFIIRPQKEGERALPSIPKLANNEKQGVRSHTVSVSETDDYAEIIDEEDTYTMPSTRDYEIQRERIELGRCIGEGQFGDVHQGIYMSPENPAMAVAIKTCKNCTSDSVREKFLQEALTMRQFDHPHIVKLIGVITENPVWIIMELCTLGELRSFLQVRKFSLDLASLILYAYQLSTALAYLESKRFVHRDIAARNVLVSATDCVKLGDFGLSRYMEDSTYYKASKGKLPIKWMAPESINFRRFTSASDVWMFGVCMWEILMHGVKPFQGVKNNDVIGRIENGERLPMPPNCPPTLYSLMTKCWAYDPSRRPRFTELKAQLSTILEEEKLQQEERMRMESRRQVTVSWDSGGSDEAPPKPSRPGYPSPRSSEGFYPSPQHMVQPNHYQVSGYSGSHGIPAMAGSIYPGQASLLDQTDSWNHRPQEVSAWQPNMEDSGTLDVRGMGQVLPTHLMEERLIRQQQEMEEDQRWLEKEERFLVMKPDVRLSRGSIEREDGGLQGPAGNQHIYQPVGKPDHAAPPKKPPRPGAPHLGSLASLNSPVDSYNEGVKIKPQEISPPPTANLDRSNDKVYENVTGLVKAVIEMSSKIQPAPPEEYVPMVKEVGLALRTLLATVDESLPVLPASTHREIEMAQKLLNSDLAELINKMKLAQQYVMTSLQQEYKKQMLTAAHALAVDAKNLLDVIDQARLKMISQSRPH
# Variants of: B1
# Details: with src_chick SRC
row,Variant,effect of a mutation on the interaction
1,Y397F,disrupting interaction
2,Y397F;K454R,disrupting interaction
3,K454R,decreasing interaction
4,Y576F;Y577F,decreasing interaction
